Binding result and Kd data for 15 molecules are collected here from publication PMC9705548, “Altered tRNA processing is linked to a distinct and unusual La protein in Tetrahymena thermophila”.

The target in data set [1] is T1, Mlp1 (Tetrahymena thermophila, UniProt Q23RK6 1-340).
T1 sequence: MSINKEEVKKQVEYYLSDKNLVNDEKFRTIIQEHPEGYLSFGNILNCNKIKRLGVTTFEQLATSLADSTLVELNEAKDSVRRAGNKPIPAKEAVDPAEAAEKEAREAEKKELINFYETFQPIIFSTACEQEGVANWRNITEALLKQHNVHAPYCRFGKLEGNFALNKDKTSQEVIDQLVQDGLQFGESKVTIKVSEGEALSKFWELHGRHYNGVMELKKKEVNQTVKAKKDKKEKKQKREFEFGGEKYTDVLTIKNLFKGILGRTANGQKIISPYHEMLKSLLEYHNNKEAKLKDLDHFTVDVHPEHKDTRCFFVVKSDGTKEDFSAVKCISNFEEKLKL
The experiment in a line: competition; EMSA: 20 mM Tris-HCl pH 7.4, 100 mM KCl, 1 mM EDTA, 5 mM beta-mercaptoethanol, 10% glycerol; ~0.1 nM RNA refolded from 95 C; 30 min at 30 C; 8% native PAGE at 4 C. Particulars: protein: recombinant; tags: N-terminal 6xHis (pET28a); label: none.

Data set [2] addresses T1, Mlp1. The experiment in a line: EMSA; 20 mM Tris-HCl pH 7.4, 100 mM KCl, 1 mM EDTA, 5 mM beta-mercaptoethanol, 10% glycerol; ~0.1 nM RNA; 30 min at 30 C; 8% native PAGE at 4 C. Particulars: protein: recombinant, tags: N-terminal 6xHis (pET28a).
Data set [3] deals with T1, Mlp1. The experiment in a line: EMSA; EMSA: 20 mM Tris-HCl pH 7.4, 100 mM KCl, 1 mM EDTA, 5 mM beta-mercaptoethanol, 10% glycerol; ~0.1 nM RNA refolded from 95 C; 30 min at 30 C; 8% native PAGE at 4 C. The following applies: protein: recombinant, tags: N-terminal 6xHis (pET28a). (In general: Mobility shift assays separate free from complexed probe on a gel.)
A further data set has as its target T2, hLa (Homo sapiens, UniProt P05455 1-408).
T2 sequence: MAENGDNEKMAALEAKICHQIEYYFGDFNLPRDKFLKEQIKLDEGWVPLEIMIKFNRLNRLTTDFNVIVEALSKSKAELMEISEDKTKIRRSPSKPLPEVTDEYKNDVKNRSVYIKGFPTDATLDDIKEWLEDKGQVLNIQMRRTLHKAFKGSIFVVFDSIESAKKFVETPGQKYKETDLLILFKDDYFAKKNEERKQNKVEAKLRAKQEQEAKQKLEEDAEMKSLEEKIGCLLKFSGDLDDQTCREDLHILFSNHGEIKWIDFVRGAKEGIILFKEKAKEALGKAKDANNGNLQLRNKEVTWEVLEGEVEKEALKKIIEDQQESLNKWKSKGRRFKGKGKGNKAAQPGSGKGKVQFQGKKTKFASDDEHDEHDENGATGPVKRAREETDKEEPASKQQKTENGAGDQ
Put plainly: competition; EMSA: 20 mM Tris-HCl pH 7.4, 100 mM KCl, 1 mM EDTA, 5 mM beta-mercaptoethanol, 10% glycerol; ~0.1 nM RNA refolded from 95 C; 30 min at 30 C; 8% native PAGE at 4 C. Particulars: protein: recombinant; tags: 6xHis (encoded in reverse primer, pET28a); label: none.

In another data set the target is T3, Mlp1 1-250 (Tetrahymena thermophila, UniProt Q23RK6 1-250).
T3 sequence: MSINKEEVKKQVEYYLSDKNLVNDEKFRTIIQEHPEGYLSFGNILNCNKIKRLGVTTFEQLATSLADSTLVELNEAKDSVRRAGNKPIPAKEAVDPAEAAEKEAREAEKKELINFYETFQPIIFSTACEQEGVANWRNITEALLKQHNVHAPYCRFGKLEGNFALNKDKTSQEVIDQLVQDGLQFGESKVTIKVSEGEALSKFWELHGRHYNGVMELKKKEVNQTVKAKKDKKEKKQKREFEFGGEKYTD
The experiment in a line: EMSA; EMSA: 20 mM Tris-HCl pH 7.4, 100 mM KCl, 1 mM EDTA, 5 mM beta-mercaptoethanol, 10% glycerol; ~0.1 nM RNA refolded from 95 C; 30 min at 30 C; 8% native PAGE at 4 C. Particulars: protein: recombinant; tags: N-terminal 6xHis (pET28a).

For the next data set, the target named is T4, Mlp1 Q11A/Y14A (Tetrahymena thermophila, UniProt Q23RK6 1-340, Q11A;Y14A).
T4 sequence: T1 sequence with Q11A, Y14A
The description is as above. Particulars: protein: recombinant; tags: N-terminal 6xHis (pET28a).

Another data set concerns the target T5, Mlp1 95-250 (Tetrahymena thermophila, UniProt Q23RK6 95-250).
T5 sequence: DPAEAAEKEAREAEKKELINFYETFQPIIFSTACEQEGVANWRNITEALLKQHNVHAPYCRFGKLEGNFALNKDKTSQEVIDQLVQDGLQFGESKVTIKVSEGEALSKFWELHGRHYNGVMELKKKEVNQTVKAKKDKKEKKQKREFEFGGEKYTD
Described as above. The following applies: protein: recombinant; tags: N-terminal 6xHis (pET28a); label: 32P.

The target of a further data set is T6, Mlp1 1-95 (Tetrahymena thermophila, UniProt Q23RK6 1-95).
T6 sequence: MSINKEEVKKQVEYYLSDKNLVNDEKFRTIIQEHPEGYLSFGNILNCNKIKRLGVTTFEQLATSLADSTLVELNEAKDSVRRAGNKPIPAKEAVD
The description is as above. Particulars: protein: recombinant; tags: N-terminal 6xHis (pET28a); label: 32P.

Where [4] appears, read: label: 32P-UTP body label, tRNA fold.

Residue numbers refer to the chain shown, from its start.

B1: U-2C (ssRNA)
RNA: CUGCUGUUCU
Take B1: the binding result in the data set with Mlp1 [1] is given as “binds”.

B2: pre-tRNA GlnUUA 3'-trailer only (structured_RNA)
RNA: GGUUCCAUAGUAUAGUGGUUAGUACUGGGGACUUUAAAUCCCUUGACCUGGGUUCGAAUCCCAGUGGGACCUGCUUUUU
Broadly, the Kd is a measure of binding affinity in units of concentration. For the molecule B2, the dissociation constant (Kd) with Mlp1 [2] (label: 32P-UTP body label) was found to be 740 ± 40 nM.

B3: C10 (ssRNA)
RNA: CCCCCCCCCC
B3: the binding result with Mlp1 [3] (label: 32P) is on record as “no binding”.

B4: 4C (ssRNA)
RNA: CUGCUGCCCC
As to B4, the binding result in the data set with hLa is on record as “no binding”.

B5: pre-tRNA GlnUUA 5' 3' (structured_RNA)
RNA: GCAUGUCCGGUUCCAUAGUAUAGUGGUUAGUACUGGGGACUUUAAAUCCCUUGACCUGGGUUCGAAUCCCAGUGGGACCUGCUUUUU
As to B5, the Kd with Mlp1 [2] (setting [4]) turned out to be 687 ± 44 nM.

B6: U-3C (ssRNA)
RNA: CUGCUGUCUU
On to B6, for which the binding result in the data set with Mlp1 [1] is reported as “binds”.

B7: pre-tRNA LeuAAG 3'-trailer only (structured_RNA)
RNA: GAUGAAGUGGCCGAGCGGUCUAAGGCGGUAGAUUAAGGCUCUAUUCCGAAAGGGCGCGAGUUCGAAUCUCGCCUUCAUCAGAUUUUU
B7: the Kd in the data set with Mlp1 [2] (label: 32P-UTP body label) came out at 658 ± 36 nM.

B8: pre-tRNA LeuAAG 5' 3' (structured_RNA)
RNA: GAGCGAAGAUGAAGUGGCCGAGCGGUCUAAGGCGGUAGAUUAAGGCUCUAUUCCGAAAGGGCGCGAGUUCGAAUCUCGCCUUCAUCAGAUUUUU
For B8, in the data set with Mlp1 [2] (tRNA fold), the Kd is 586 ± 15 nM.

B9: pre-tRNA GlnUUA 5'-leader only (structured_RNA)
RNA: GCAUGUCCGGUUCCAUAGUAUAGUGGUUAGUACUGGGGACUUUAAAUCCCUUGACCUGGGUUCGAAUCCCAGUGGGACCU
With B9, the Kd with Mlp1 [2] (label: 32P-UTP body label) amounted to 804 ± 16 nM.

B10: 4U (CUGCUGUUUU-3'OH) (ssRNA)
RNA: CUGCUGUUUU
On to B10, for which the binding result is listed as “binds” with Mlp1 [3], “binds” in the data set with Mlp1 1-250 and “no binding” with Mlp1 Q11A/Y14A.

B11: mature tRNA GlnUUA (structured_RNA)
RNA: GGUUCCAUAGUAUAGUGGUUAGUACUGGGGACUUUAAAUCCCUUGACCUGGGUUCGAAUCCCAGUGGGACCU
In the case of B11, in the data set with Mlp1 [2] (setting [4]), the Kd was 801 ± 62 nM.

B12: U-1C (ssRNA)
RNA: CUGCUGUUUC
With B12, the binding result with Mlp1 [1] was “binds”.

B13: uridylate RNA of Supplementary Fig. S4b (ssRNA)
RNA: CUGCUGUUUU
Consider B13, for which the binding result with Mlp1 95-250 and in the data set with Mlp1 1-95 was “no binding” throughout.

B14: pre-tRNA LeuAAG 5'-leader only (+5'PPP) (structured_RNA)
RNA: GAGCGAAGAUGAAGUGGCCGAGCGGUCUAAGGCGGUAGAUUAAGGCUCUAUUCCGAAAGGGCGCGAGUUCGAAUCUCGCCUUCAUCA
For the molecule B14, in the data set with Mlp1 [2] (tRNA fold), the Kd worked out at 714 ± 21 nM.

B15: mature tRNA LeuAAG (structured_RNA)
RNA: GAUGAAGUGGCCGAGCGGUCUAAGGCGGUAGAUUAAGGCUCUAUUCCGAAAGGGCGCGAGUUCGAAUCUCGCCUUCAUCA
With B15, in the data set with Mlp1 [2] (tRNA fold), the Kd came to 831 ± 33 nM.
